# Reference: the Immune Epitope Database (IEDB)
# What was measured:
# Experiment in all cases: IEDB peptide-MHC binding, purified MHC/competitive/radioactivity; filed as Kd, often an IC50 or EC50 that approximates it; ≥ and ≤ were set here for values at or beyond the usual limits of such assays
# HLA-A*68:01 = biological target: HLA-A*68:01
# HLA-A*11:01 = biological target: HLA-A*11:01
# HLA-A*31:01 = biological target: HLA-A*31:01
# HLA-A*03:01 = biological target: HLA-A*03:01
# HLA-A*33:01 = biological target: HLA-A*33:01
# [1] = source organism: Vaccinia virus WR
# [2] = source organism: Dengue virus 4 Philippines/H241/1956
# [3] = source organism: Dengue virus 1 Brazil/97-11/1997
# [4] = source organism: Dengue virus 1 Nauru/West Pac/1974
# [5] = source organism: Mammarenavirus machupoense
# [6] = source organism: SARS coronavirus Tor2
# [7] = source organism: Mammarenavirus guanaritoense
# [8] = source organism: Dengue virus 2 Jamaica/1409/1983
# [9] = source organism: Mammarenavirus brazilense
# [10] = source organism: Dengue virus 3 Martinique/1243/1999
# [11] = source organism: Lassa virus Josiah
# [12] = source organism: Vaccinia virus Copenhagen
# [13] = source organism: Lymphocytic choriomeningitis virus (strain Pasteur)
Sequence,Kd (HLA-A*68:01; [1]) [µM],Kd (HLA-A*11:01; [1]) [µM],Kd (HLA-A*31:01; [1]) [µM],Kd (HLA-A*03:01; [1]) [µM],Kd (HLA-A*33:01; [1]) [µM],other results
DIFMRDWNSK,0.0742,4.23,12.4,≥ 70.1,0.548,–
DFLKDDTLSK,10.7,5.76,≥ 70,15,8,–
CIRNASKFVY,≥ 37,19.9,≥ 70,17.5,≥ 70,–
LIKNAQTPR,–,–,–,–,–,Kd (HLA-A*31:01; [2]): 0.0136 µM
TAKLRWFVER,–,–,–,–,–,Kd (HLA-A*31:01; [3]): ≥ 28.4 µM; Kd (HLA-A*33:01; [3]): 0.0342 µM
HIIDSFNIR,0.000448,0.149,0.00112,1.68,0.732,–
ILEYLYIMR,0.303,1.09,0.0976,1.57,0.426,–
VTLFFLSGR,–,–,–,–,–,Kd (HLA-A*31:01; [4]): 7.49 µM; Kd (HLA-A*33:01; [4]): 0.098 µM
GVRVRVAVNK,2.19,0.84,12.1,0.0522,≥ 70,–
ILAALFMYY,0.0363,0.000309,6.4,0.000175,16,–
SFFQEIPVFL,–,–,–,–,–,Kd (HLA-A*68:01; [5]): ≥ 49.2 µM; Kd (HLA-A*11:01; [5]): ≥ 59.7 µM; Kd (HLA-A*31:01; [5]): 0.613 µM; Kd (HLA-A*03:01; [5]): ≥ 70 µM; Kd (HLA-A*33:01; [5]): 2.41 µM
FIQWTGGNIR,0.112,≥ 22,3.86,≥ 29.8,2.05,–
DLLFNEKLK,0.0292,0.188,8.15,1.92,0.744,–
KFAEESYTY,≥ 38.7,16.5,13.5,≥ 78,≥ 77.7,–
LVYIFEPEK,0.13,0.0249,≥ 21.1,0.382,≥ 77.7,–
CMTSCCSCLK,–,–,–,–,–,Kd (HLA-A*68:01; [6]): 0.0402 µM; Kd (HLA-A*11:01; [6]): 0.0808 µM; Kd (HLA-A*31:01; [6]): 0.8 µM; Kd (HLA-A*03:01; [6]): 0.0627 µM; Kd (HLA-A*33:01; [6]): 1.86 µM
ILCFTIKRK,–,–,–,–,–,Kd (HLA-A*68:01; [6]): 17.2 µM; Kd (HLA-A*11:01; [6]): 7.71 µM; Kd (HLA-A*31:01; [6]): 6.68 µM; Kd (HLA-A*03:01; [6]): 1 µM; Kd (HLA-A*33:01; [6]): ≥ 45 µM
PVSDLYTSMR,0.0013,0.638,0.539,6.26,0.346,–
KSIENKHQR,0.1,0.0294,0.00155,12.6,1.08,–
KLRPRWLDAR,–,–,–,–,–,Kd (HLA-A*31:01; [3]): 0.000403 µM
SSRVDRYSK,0.611,0.0169,0.266,0.0659,1.21,–
KTSSVARLR,–,–,–,–,–,Kd (HLA-A*11:01; source organism: Lymphocytic choriomeningitis virus (strain Armstrong)): 0.0728 µM
KLILAEYIR,2.09,15.2,0.0681,8.07,9.56,–
QAAVLMGLGK,–,–,–,–,–,Kd (HLA-A*68:01; [2]): 0.0607 µM

Sequence,Kd (HLA-A*68:01; [1]) [µM],Kd (HLA-A*11:01; [1]) [µM],Kd (HLA-A*31:01; [1]) [µM],Kd (HLA-A*03:01; [1]) [µM],Kd (HLA-A*33:01; [1]) [µM],other results
TVENNIDFLK,0.0197,0.0699,8.65,2.65,17.9,–
KCSDHYLCLR,–,–,–,–,–,Kd (HLA-A*68:01; [7]): ≥ 70.1 µM; Kd (HLA-A*11:01; [7]): ≥ 44.8 µM; Kd (HLA-A*31:01; [7]): 0.14 µM; Kd (HLA-A*03:01; [7]): 4.76 µM; Kd (HLA-A*33:01; [7]): 5.78 µM
IVTMMKYCSY,0.0415,0.0268,0.0316,0.127,0.235,–
DQAMTQMYK,–,–,–,–,–,Kd (HLA-A*68:01; [6]): 0.121 µM; Kd (HLA-A*11:01; [6]): 0.866 µM; Kd (HLA-A*31:01; [6]): 6.97 µM; Kd (HLA-A*03:01; [6]): 2.56 µM; Kd (HLA-A*33:01; [6]): 8.45 µM
PVYLMTLMK,–,–,–,–,–,Kd (HLA-A*11:01; [2]): 0.196 µM; Kd (HLA-A*03:01; [2]): 0.00391 µM
KKKTPRMCTR,–,–,–,–,–,Kd (HLA-A*31:01; [8]): 0.768 µM
LNTPYCNYTK,–,–,–,–,–,Kd (HLA-A*68:01; [9]): 0.695 µM; Kd (HLA-A*11:01; [9]): 10.8 µM; Kd (HLA-A*31:01; [9]): 6.41 µM; Kd (HLA-A*03:01; [9]): 15.3 µM; Kd (HLA-A*33:01; [9]): 0.032 µM
IISIRPRVTK,0.18,0.125,0.425,0.0555,5.69,–
LTTLSRTSK,–,–,–,–,–,Kd (HLA-A*11:01; [8]): 0.214 µM
DFWKLVDRER,–,–,–,–,–,Kd (HLA-A*33:01; [10]): 0.00151 µM
DSYTQMCDHR,–,–,–,–,–,Kd (HLA-A*33:01; [3]): 0.335 µM
VIEYAKSISK,2.72,0.165,10.8,0.129,17.5,–
RASLIPDATH,–,–,–,–,–,Kd (HLA-A*68:01; [11]): 19.6 µM; Kd (HLA-A*11:01; [11]): ≥ 59.1 µM; Kd (HLA-A*31:01; [11]): 1.98 µM; Kd (HLA-A*33:01; [11]): ≥ 50.7 µM
STAEQLSKY,0.0549,0.133,≥ 77.9,2.43,≥ 77.7,–
SLAIKNYYR,–,–,–,–,–,Kd (HLA-A*68:01; [12]): 6.41 µM; Kd (HLA-A*11:01; [12]): 6.06 µM; Kd (HLA-A*31:01; [12]): 3.1 µM; Kd (HLA-A*03:01; [12]): ≥ 43 µM; Kd (HLA-A*33:01; [12]): ≥ 77.7 µM
SAVIDALPR,–,–,–,–,–,Kd (HLA-A*68:01; [11]): 0.0533 µM; Kd (HLA-A*11:01; [11]): 0.222 µM; Kd (HLA-A*31:01; [11]): 2.12 µM; Kd (HLA-A*03:01; [11]): 11 µM; Kd (HLA-A*33:01; [11]): 15.3 µM
NIQKITVFNK,0.0305,0.0058,0.00389,0.0474,1.2,–
IIPALFEPER,–,–,–,–,–,Kd (HLA-A*68:01; [3]): 0.0767 µM
VVKDDPDHY,8.05,1.8,≥ 77.9,≥ 78,≥ 77.7,–
GFNTLKPIFK,–,–,–,–,–,Kd (HLA-A*68:01; [6]): 1.96 µM; Kd (HLA-A*11:01; [6]): 0.105 µM; Kd (HLA-A*31:01; [6]): 1.83 µM; Kd (HLA-A*03:01; [6]): 0.14 µM; Kd (HLA-A*33:01; [6]): 19.6 µM
DFRDYQSYR,1.02,13.6,0.0745,≥ 78,0.000837,–
QTMLFTMLRK,–,–,–,–,–,Kd (HLA-A*68:01; [6]): 0.0199 µM; Kd (HLA-A*11:01; [6]): 0.00457 µM; Kd (HLA-A*31:01; [6]): 0.164 µM; Kd (HLA-A*03:01; [6]): 0.0111 µM; Kd (HLA-A*33:01; [6]): 0.268 µM
RSTPFNMLKR,–,–,–,–,–,Kd (HLA-A*31:01; [8]): 1.39 µM
TINVNSLALK,0.0062,0.0187,1.12,0.0173,4,–

Sequence,Kd (HLA-A*68:01; [1]) [µM],Kd (HLA-A*11:01; [1]) [µM],Kd (HLA-A*31:01; [1]) [µM],Kd (HLA-A*03:01; [1]) [µM],Kd (HLA-A*33:01; [1]) [µM],other results
FFASFYYIWK,–,–,–,–,–,Kd (HLA-A*68:01; [6]): 0.0862 µM; Kd (HLA-A*11:01; [6]): 0.243 µM; Kd (HLA-A*31:01; [6]): 0.734 µM; Kd (HLA-A*03:01; [6]): 0.285 µM; Kd (HLA-A*33:01; [6]): 0.0609 µM
FSSLRREHIK,0.0941,0.277,0.144,1.02,17.4,–
TYLGPLNCK,–,–,–,–,–,Kd (HLA-A*68:01; [13]): 0.699 µM; Kd (HLA-A*11:01; [13]): 0.0478 µM; Kd (HLA-A*31:01; [13]): 5.22 µM; Kd (HLA-A*03:01; [13]): 0.481 µM; Kd (HLA-A*33:01; [13]): 0.834 µM
FLWTQSLRR,–,–,–,–,–,Kd (HLA-A*68:01; [11]): 0.32 µM; Kd (HLA-A*11:01; [11]): 0.723 µM; Kd (HLA-A*31:01; [11]): 2.05 µM; Kd (HLA-A*03:01; [11]): 0.0407 µM; Kd (HLA-A*33:01; [11]): 2.9 µM
ITSTKTIEY,1.73,0.434,15.1,0.122,≥ 20.9,–
SLLTCAKFK,–,–,–,–,–,Kd (HLA-A*03:01; [3]): 0.021 µM
WLYYNQDVQR,0.00821,7.91,0.222,1.84,0.161,–
LIKTILASY,10.3,7.87,7.44,0.568,18.7,–
TTILDVDLR,–,–,–,–,–,Kd (HLA-A*68:01; [2]): 0.0358 µM
LITGNMSFR,–,–,–,–,–,Kd (HLA-A*68:01; [8]): 0.0262 µM; Kd (HLA-A*33:01; [8]): 1.31 µM
RMIVGKNER,–,–,–,–,–,Kd (HLA-A*31:01; [10]): 0.0161 µM
ISAEKTPIR,0.275,6.02,≥ 41.7,≥ 78,≥ 77.7,–
LLVKMINHLK,0.776,0.4,5.42,0.258,≥ 67.5,–
DSDVSLIIEY,0.205,2.73,10.3,4.82,4.69,–
VVRPPFNMLK,–,–,–,–,–,Kd (HLA-A*11:01; [2]): 0.0709 µM; Kd (HLA-A*03:01; [2]): 0.00444 µM
VTSSGVIYK,–,–,–,–,–,Kd (HLA-A*68:01; source organism: Variola virus): ≥ 70.1 µM; Kd (HLA-A*11:01; source organism: Variola virus): ≥ 69.7 µM; Kd (HLA-A*31:01; source organism: Variola virus): ≥ 70 µM; Kd (HLA-A*03:01; source organism: Variola virus): ≥ 70 µM; Kd (HLA-A*33:01; source organism: Variola virus): ≥ 70 µM
LVAPSYGMR,–,–,–,–,–,Kd (HLA-A*68:01; [2]): 0.00384 µM
VVYDAKFEK,–,–,–,–,–,Kd (HLA-A*11:01; [3]): 0.0424 µM; Kd (HLA-A*03:01; [3]): 0.00701 µM
ATTILTPMLR,–,–,–,–,–,Kd (HLA-A*68:01; [2]): 0.284 µM; Kd (HLA-A*11:01; [2]): 0.129 µM; Kd (HLA-A*31:01; [2]): 0.0773 µM
STYGWNIVK,–,–,–,–,–,Kd (HLA-A*03:01; [10]): 0.00475 µM
LLLTSSQQK,–,–,–,–,–,Kd (HLA-A*03:01; [8]): 0.0155 µM
EWLWRTLGR,–,–,–,–,–,Kd (HLA-A*33:01; [10]): 0.00826 µM
RMCTREEFTR,–,–,–,–,–,Kd (HLA-A*31:01; [8]): 0.00572 µM; Kd (HLA-A*33:01; [8]): 0.654 µM
